Target: SH2 domain of Abl1 kinase fused to 434 cI repressor (UniProt P16117)
Test: cell-based or functional assay

## HA4 Y84A monobody (from UniProt P0A800 1-91) (designed binder)
  ON propagation on this AP combo, against the wt HA4 monobody: 105 fold lower

Reference: patent publication US20200216833A1
